# Measured values: patent US20050059087A1, “Antibodies directed to the deletion mutants of epidermal growth factor receptor and uses thereof” (priority 2003, published 2005)
# Substitutions are numbered along the chain they refer to.
# B1: 095: XenoMax derived human anti-EGFRvIII antibody (antibody, V domains shown)
# VH: QVQLQESGPFLVKPSQTLSLTCTVSGGSISSGGYYWSWIRQHPGKGLEWIGFIYYRGNTYYNPSLKSRVTISVDTSKNQFSLKLSSVTAADTAVYYCARDGYCSRTGCYGGWFDPWGQGTLVTVSP
# VL: DIVMTQTPLSSPVTLGQPASISCRSSQSLIHTDGNIYLSWLQQRPGQPPRLLIYKISNRFSGVPDRFSGSGAGTDFTLKISRVEAEDVGVYYCMQGTQFPITFGQGTRLEIK
# B2: 125 D10: B-cell culture supernatant well (antibody, V domains shown)
# VH: QVQLQQSGPGLVKPSQTLSLTCAISGDSVSSNNAAWNWIRQSPARGLEWLGRTYYRSKWYNDYVVSVKSRITINPDTSKNQFSLQLNSVTPEDTAVYYCVRATAFDYWGQGTLVTVSS
# VL: AIVLTQTPLSSPVTLGQPASISCRSSQSLVHRDGNTYLSWLQQRPGQPPRLLIYKISNRFSGVPDRFSGSGAGTDFTLKISRVEPDDVGVYYCMHTTQLPWTFGQGTKVEIK
# B3: 139: XenoMax derived human anti-EGFRvIII IgG1, from well 182A5 (antibody, V domains shown)
# VH: EVQVLESGGGLVQPGGSLRLSCAASGFTFSSYAMSWVRQAPGKGLEWVSAISGSGGSTNYADSVKGRFTISRDNSKNTLYLQMNSLRAEDTAVYYCAGSSGWSEYWGQGTLVTVSS
# VL: DIQMTQSPSSLSASVGDRVTITCRASQGIRNNLAWYQQKPGKAPKRLIYAASNLQSGVPSRFTGSGSGTEFTLIVSSLQPEDFATYYCLQHHSYPLTSGGGTKVEIK
# B4: 250: XenoMax derived human anti-EGFRvIII antibody, from well 138D2 (antibody, V domains shown)
# VH: B3 VH with V2G, V4L, L11W, G16E, M83V, A88V
# VL: DIQMTQSPSSLSASVGDSVTITCRTSQGIRKNLGWYQQKPGKAPKRLIYAASSLQSGVPSRFSGSGSGTEFTLTISRLQPEDFATYYCLQHHSYPLTFGGGTRVEIR
# B5: 211: XenoMax derived human anti-EGFRvIII antibody, from well 190D7 (antibody, V domains shown)
# VH: QVQLVESGGGVVQPGRSLRLSCVASGFTLSSYGMHWVRQAPGKGLEWVAVTSYDGSKKDYADSAKGRFTISRDNSKNTLYLQMNSLRAEDTAVYYCVSEGYCSSSSCYKYYYYGMDVWGQGTTVTVSS
# VL: DIVMTQSPLSLPVTPGEPASISCRSSQSLLYRNGNNYLDWYLQRPGQSPQLLIYLGSNRASGVPDRFSGSGSGTDFTLKISRVEAEDVGVYYCMQALQTPRTFGQGTKVEIK
# Tests used:
# [1] = target: T1, EGFrVIII peptide sequence (residues 1-20) (Homo sapiens, UniProt P00533, DELINS30-297G); experiment: Epitope mapping by SPOTs peptide array and Alanine scanning; type: binding; details: SEQ ID 94/98 = EEKKGNYVVT; 95 = LEEKKGNYVVTD; 96 = YVVTDH; 97 = YVVTD; 99 = GNYVVT
# T1 construct: purchased Sigma-Genosys (custom SPOTs array)
# Text: The approach that was used was a custom SPOTs peptide array (Sigma Genosys) to study the molecular interaction of the human anti-EGFrVIII antibodies with their peptide epitope. SPOTs technology is based on the solid-phase synthesis of peptides in a format suitable for the systematic analysis of antibody epitopes. Synthesis of custom arrayed oligopeptides is commerically available from Sigma-Genosys. A peptide array of overlapping oligopeptides derived from the amino-acid sequence of the EGFr VIII variant was ordered from Sigma-Genosys.
# A series of nine 12-mer peptides were synthesized as spots on polypropylene membrane sheets. The peptide array spanned residues 1-20 of the EGFrVIII sequence, representing the deletion of amino acids 6-273 in the extracellular domain of wtEGFr, and the generation of a glycine (G) residue at the junction point. Each consecutive peptide was offset by 1 residue from the previous one, yielding a nested, overlapping library of arrayed oligopeptides. The membrane carrying the 9 peptides was reacted with 9 different anti EGFrVIII antibodies (1 μg/ml). The binding of the mAbs to the membrane-bound peptides was assessed by an enzyme-linked immunosorbent assay using HRP-conjugated secondary antibody followed by enhanced chemiluminescence (ECL).
# In addition, functional epitopes were mapped by combinatorial Alanine scanning. In this process, a combinatorial Alanine-scanning strategy was used to identify amino acids in the EGFrVIII peptide necessary for interaction with anti-EGFRvIII mAbs. To accomplish this, a second set of SPOTs arrays was ordered for Alanine scanning. A panel of variants peptides with alanine substitutions in each of the 12 residues was scanned as above. Spot #1, the unmutated sequence, is a positive control for antibody binding.
# Pep-3 (EGFRvIII epitope) = target: T2, Pep-3 (EGFRvIII epitope) (Homo sapiens, UniProt P00533, DELINS30-297G); experiment: Biacore (surface plasmon resonance) binding kinetics to Pep-3; details: for Ka / dissociation rate constant (kd, koff): parentheses 95% confidence interval
# T2 construct: purchased Anatech, Inc. (San Jose, Calif.); host or cells: custom synthesis
# Description: All antigen and mAb samples for Biacore and KinExA analysis were prepared in vacuum-degassed HBS-P buffer (0.01 M HEPES, 0.15 M NaCl, 0.005% surfactant P-20, Biacore Inc., Uppsala, Sweden) containing 100 μg/mL BSA. […] Research grade CM5 biosensor chips were purchased from Biacore, Inc.
# Standard EDC/NHS and carbohydrate coupling was used to covalently immobilize mAbs to a CM5 sensor chip. To minimize mass transport and crowding mAbs were immobilized at levels that gave a maximum antigen binding response (Rmax) of no more than 50-100 RU. A reference flow cell on each chip was activated and blocked with no mAb immobilization to serve as a control.
# All Biacore kinetic experiments were conducted at 23° C. […] Antigen samples were randomly injected over the biosensor surface in triplicate at 100 μL/min. Several buffer blanks were injected intermittently over the course of an experiment for double referencing. Each pep-3 concentration and blank were injected for 90 seconds. Dissociation was followed for 13 to 180 minutes.
# All Biacore sensorgrams were processed using Scrubber software (Version 1.1f, BioLogic Software, Australia). Sensorgrams were first zeroed on the y-axis and then x-aligned at the beginning of the injection. Bulk refractive index changes were removed by subtracting the reference flow cell responses. The average response of all blank injections was subtracted from all analyte and blank sensorgrams to remove systematic artifacts between the experimental and reference flow cells. CLAMP biosensor data analysis software (Version 3.40, BioLogic Software, Australia) was used to determine ka and kd from the processed data sets. Data from all flow cells were globally fit to a 1:1 bimolecular binding model that included a mass transport term. […] The KD was calculated from the quotient kd/ka.
# Two CM5 sensor chips were used in total to immobilize both mAbs. […] Biacore 2000 optical biosensors were used for all studies.
# Next, pep-3 was flowed across the mAb immobilized biosensor surfaces. The starting concentration of pep-3 was 1.25 μM, which was followed with eight two-fold serial dilutions in randomized triplicate injections. Blank injections were run every sixth sample throughout the injection series for double referencing purposes.
# Finally, the biosensor data was processed with Scrubber and the data was fit to curves utilizing Clamp with a 1:1 interaction model with a term included for mass transport. […]
# [2] = target: T3, EGFRvIII receptor on NR6 M cells (Homo sapiens, UniProt P00533, DELINS30-297G); experiment: Internalization assay of B-cell culture supernatants (FMAT, glutathione); type: cell-based
# T3 construct: expressed in transfected cells; host or cells: NR6 murine fibroblasts (NR6 M)
# Description: The top 60 native binding B cell culture supernatants were further assayed for their ability to internalize the receptor. NR6 M cells were seeded at 8000 cells/well into 96 well FMAT plates and incubated overnight. Media was removed and 10-15 μl B-Cell culture supernatant in a total volume of 30 μl media, in duplicate was added. Next, 15 μl of secondary antibody (SS Alexa 647 anti-human IgG Fab at 1.5 μg/ml final concentration) was added and the mixture was incubated on ice for 1 hr. An irrelevant B-Cell Culture supernatant was used to see the effect of the culture media. Human anti-EGFRvIII mAb 13.2.1 was used as a positive control starting at 1 μg/ml (final concentration) and negative control was PK 16.3.1 (human anti-KLH IgG2 antibody) at the same concentration. After incubation, the cells were washed with cold PBS, 50 μl media was added to all of the wells, one of the duplicates were incubated at 37° C. for 30 mins while the other duplicate remained on ice. After the incubations media was removed, 100 ul of cold 50 mM glutathione was added to the set incubated at 37° C. and 100 μl of cold media added to the other set, both sets were then left on ice for 1 hr. The cells were then washed with 100 μl cold PBS and then fixed with 1% paraformaldehyde and read in FMAT. The results were expressed as % intermalized, calculated as total fluorescence in the presence of glutathione/total fluorescence in the absence of glutathione X 100.
# [3] = target: T4, H1477 (H80-EGFRvIII) cells (Homo sapiens, UniProt P00533, DELINS30-297G); experiment: FACS staining of H1477 (H80-EGFRvIII) cells; type: cell-based
# T4 construct: host or cells: H1477 (H80 human glioblastoma line transfected with EGFRvIII)
# Description: (§1) The specificity of the purified antibodies was ascertained by performing FACS analysis on a panel of cell lines. H80, a human glioblastoma line, and H1477 (H80-EGFRvIII) that expresses high levels of EGFRvIII, A431, a human epidemoid carcinoma line, and A549, a human lung carcinoma cell line were used as the cell lines. All cell lines were from Dr. Bigner except A431 and A549, which were from ATCC (Rockville, Md., U.S.A.). Cells were incubated on ice with 10 μg/ml of the respective antibody for 30 min., washed in FACS buffer and subsequently incubated with PE-conjugated goat anti-human IgG from Jackson ImmunoResearch (West Grove, Pa., U.S.A.). In FIGS. 9A-9L and 10A-10D, the darkened histogram indicates cells stained with an irrelevant IgG, the outlined, or white histogram, represents the staining of the relevant antibodies.
# [4] = target: T5, A431 cells (wild type EGFR) (Homo sapiens, UniProt P00533); experiment: FACS staining of A431 cells; type: cell-based
# T5 construct: host or cells: A431
# Description: as §1
# [5] = target: T6, A549 cells (wild type EGFR) (Homo sapiens, UniProt P00533); experiment: FACS staining of A549 cells; type: cell-based
# T6 construct: host or cells: A549
# Description: as §1
# [6] = target: T7, EGFRvIII rabbit Fc fusion protein (Homo sapiens, UniProt P00533, DELINS30-297G); experiment: Western blot, purified EGFRvIII rabbit Fc fusion protein, reducing / non-reducing; type: binding; details: native and reduced
# T7 construct: fragment encoding the extracellular domain of EGFRvIII was generated; made in house; host or cells: 293F cells
# Description: (§2) Specifcially, a subset of the antibodies were tested for their binding of to lysates of tumor cell lines in Western plates of polyacrylamide gel electrophoresis under either non-reducing or reducing conditions. Purifed recombinant protein is also included. […] Sample identifications: • EGFRvIII—the rabbit Fc fusion protein • H1477—H80 human tumor cell line transfected with EGFRvIII expression contruct. These cells express both EGFR and EGFRvIII. • EGFR—purified wild-type EGFR protein • A431—human tumor cell line expressing only wild-type EGFR • A549—human tumor cell line expressing only wild-type EGFR • H80—human tumor cell line expressing only wild-type EGFR
# [7] = target: purified wild-type EGFR protein (Homo sapiens, UniProt P00533); experiment: Western blot, purified wild-type EGFR protein; type: binding
# Description: as §2
# [8] = target: T8, A431 lysate (wild-type EGFR) (Homo sapiens, UniProt P00533); experiment: Western blot, A431 lysate; type: binding
# T8 construct: host or cells: A431
# Description: as §2
molecule,measurement,setting,value
B1,Epitope mapped by SPOTs,[1],(SEQ ID NO: 96)
same,ka,Pep-3 (EGFRvIII epitope); curve fitting,1.491*10^5
same,kd,Pep-3 (EGFRvIII epitope); curve fitting,9.927*10^−3
same,Ka,Pep-3 (EGFRvIII epitope),149000 M⁻¹ s⁻¹
same,"dissociation rate constant (kd, koff)",Pep-3 (EGFRvIII epitope),0.0099 s⁻¹
B2,With glutathione FL1 × count,"[2]; 37° C. for 30 mins, then 50 mM glutathione",1236
same,"% internalized, (glut+/glut−) × 100","[2]; NR6 M cells, 37° C. 30 mins",52.8%
same,No glutathione FL1 × count,"[2]; set kept on ice, no glutathione",2342
B3,Epitope mapped by SPOTs,[1],(SEQ ID NO: 95)
same,Binding to the EGFRvIII protein on the transfected cell lines,[3]; 10 μg/ml,bind
same,Selectivity for EGFRvIII expressing cells (H1477) as compared to ABX-EGF,"[3]; FIGS. 9A-9L, 10A-10D",superior selectivity
same,Binding / staining of A431 cells in FACS,[4],stained
same,Binding / staining of A549 cells in FACS,[5],stained
same,kd,Pep-3 (EGFRvIII epitope); curve fitting,2.981*10^−3
same,Ka,Pep-3 (EGFRvIII epitope),10300 M⁻¹ s⁻¹
same,"dissociation rate constant (kd, koff)",Pep-3 (EGFRvIII epitope),0.00298 s⁻¹
B4,Epitope mapped by SPOTs,[1],(SEQ ID NO: 95)
B5,Epitope mapped by SPOTs,[1],(SEQ ID NO: 97)
same,Binding to purified EGFRvIII in Western blots,[6],binds to both native and reduced
same,Binding to purified wildtype EGFr in Western blots,[7],cross reacted
same,"Binding in Western blot of A431 lysate, reduced sample",[8],no signal
same,Binding in Western blot of lysate of A431 cells,[8],cross reacted
same,"Binding in Western blot of A431 lysate, non-reduced sample",[8]; band of the size of wild-type EGFR,binds strongly
